From US20050272649A1, “Conjoint administration of morphogens and ACE inhibitors in treatment of chronic renal failure” (priority 2002, published 2005)
Entries after “also recorded” stand apart in the source; their conditions may differ.

Legend:
[1] = tested on: streptozotocin diabetic Sprague-Dawley rats; format: in vivo; conditions: preliminary / unpublished studies
[2] = tested on: unilateral ureteral ligation in Sprague-Dawley rats; experiment: Unilateral Ureteral Obstruction (UUO) renal fibrosis model; format: in vivo, rat; conditions: for loss of medullary tissue in the kidney: untreated about 24%
From the text: This UUO model was employed essentially as described (Moller, et al. (1984) Virchows Arch 402: 209-237, the entire contents of which are incorporated herein by reference). Sprague-Dawley rats (about 250 g) underwent either a sham operation (ureter manipulated but not ligated) or unilateral ureteral ligation. Two ligatures, 5 mm apart, were placed in the upper two-thirds of the ureter over a section of polyethylene tubing placed around the ureter (see FIG. 17). The suture tied to obstruct the ureter was removed along with the tubing at day 5, relieving the obstruction. […] Uremia is avoided by the function of the contralateral kidney, which undergoes hypertrophy and hyperplasia as the obstructed kidney is destroyed. The renal injury of UUO is mediated in part through stimulation of renal angiotensin II production, which activates type-1 A-II Receptor and the downsteam TGF-β in a cascade of events culminating in tubulointerstitial inflammation and fibrosis. Inhibition of angiotensin II production by ACE inhibitors (or inhibition of A-II receptors) decreases expansion of the renal interstitium associated with fibrosis.
The effect of OP-1 on Renal fibrosis has been published (Hruska, et al. (2000) Am J Physiol Renal Physiol 279:F130-43, incorporated herein by reference), and a summarization is as follows. […] Additional effects of OP-1 have been observed in this rat UUO model.

[3] = solubility of mature OP-1 with casein; format: physicochemical; conditions: addition of 0.2% casein; mature active form of OP-1
From the text: Association of the mature morphogen dimer with a morphogen pro domain results in the pro form of the morphogen which typically is more soluble in physiological solutions than the corresponding mature form. In fact, endogenous morphogens are thought to be transported (e.g., secreted and circulated) in the mammalian body in this form. This soluble form of the protein can be obtained from culture medium of morphogen-secreting mammalian cells, e.g., cells transfected with nucleic acid encoding and competent to express the morphogen. Alternatively, a soluble species can be formulated by complexing the mature, morphogenically active polypeptide dimer (or an active fragment thereof) with a morphogen pro domain polypeptide or a solubility-enhancing fragment thereof. Solubility-enhancing pro domain fragments can be any N-terminal, C-terminal or internal fragment of the pro region of a member of the morphogen family that complexes with the mature polypeptide dimer to enhance stability and/or dissolubility of the resulting noncovalent or covalent complex. Typically, useful fragments are those cleaved at the proteolytic site Arg-Xaa-Xaa-Arg (SEQ ID NO: 30). A detailed description of soluble complex forms of morphogenic proteins, including how to make, test and use them, is described in WO 94/03600 (PCT US 93/07189). […]

Molecule | Enalapril response: dose and route of administration compared [1] | loss of medullary tissue in the kidney ([2]; OP-1 at 100 μg/kg) | loss of medullary tissue in the kidney ([2]; OP-1 at 300 μg/kg) | loss of medullary tissue / medullary necrosis (in words) ([2]; UUO rats) | increase in solubility [3] [%]
CCOC(=O)[C@H](CCc1ccccc1)N[C@@H](C)C(=O)N1CCC[C@H]1C(=O)O [enalapril, N-(1-ethoxycarbonyl-3-phenylpropyl)-L-ananyl-L-proline, reference compound] | no difference in the Enalapril response between 5 and 20 mg/kg; also recorded: equally effective as more arduous means of administering Enalapril | – | – | – | –
OP-1: osteogenic protein-1 (OP-1, also known as BMP-7), morphogen of the OP/BMP family; OP-1 used interchangeably with sBMP-7 (protein) STGSKQRSQNRSKTPKNQEALRMANVAENSSSDQRQACKKHELYVSFRDLGWQDWIIAPEGYAAYYCEGECAFPLNSYMNATNHAIVQTLVHFINPETVPKPCCAPTQLNAISVLYFDDSSNVILKKYRNMVVRACGCH | – | about 16% | about 13% | reduces tubular atrophy and medullary necrosis; also recorded: significantly reduced the loss of medullary tissue | 80
